Results reported in patent US20180155451A1 (published 2018).

T1: FcγRIIb extracellular domain with C-terminal His tag (human, UniProt P31994 43-217)
T1 construct: extracellular domain; also called FcgRIIb; 2b; not shown: His tag at the C terminus
T1 sequence (looked up): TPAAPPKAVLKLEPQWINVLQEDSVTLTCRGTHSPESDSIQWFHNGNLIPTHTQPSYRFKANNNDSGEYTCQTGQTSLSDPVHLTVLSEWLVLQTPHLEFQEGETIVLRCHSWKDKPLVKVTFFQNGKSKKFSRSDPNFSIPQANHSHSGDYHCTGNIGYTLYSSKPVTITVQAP

T2: FcγRIIa H (human, UniProt P12318 34-217)
T2 construct: extracellular domain; also called FcgRIIa H type; 2aH
T2 sequence (looked up): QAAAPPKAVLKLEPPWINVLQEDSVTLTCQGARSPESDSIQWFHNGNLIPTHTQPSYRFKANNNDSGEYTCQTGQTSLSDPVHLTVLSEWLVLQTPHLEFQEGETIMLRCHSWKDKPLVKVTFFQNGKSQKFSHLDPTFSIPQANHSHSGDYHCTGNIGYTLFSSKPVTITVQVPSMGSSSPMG

T3: FcγRIIb (human, UniProt P31994 43-217)
T3 construct: extracellular domain; also called FcgRIIb; 2b
T3 sequence (looked up): T1 sequence (looked up)

B1: GpH7-A5/GpH7-B3 variant Q295_09D/GpL16-k0 (antibody, human IgG1, kappa)
heavy 1: not shown
heavy 2: not shown
light: DIVMTQSPLSLPVTPGEPASISCQASESLVHSNRNTYLHWYLQKPGQSPQLLIYKVSNRFSGVPDRFSGSGSGTDFTLKISRVEAEDVGVYYCSQNTHVPPTFGQGTKVEIERTVAAPSVFIFPPSDEQLKSGTASVVCLLNNFYPREAKVQWKVDNALQSGNSQESVTEQDSKDSTYSLSSTLTLSKADYEKHKVYACEVTHQGLSSPVTKSFNRGEC
notes: He Ab: the mutation stands only in the GpH7-B3-derived H chain; also called He Ab Q295D
B2: GpH7-A5/GpH7-B3 variant D270_10E/GpL16-k0 (antibody, human IgG1, kappa)
heavy 1: not shown
heavy 2: not shown
light: B1 light
notes: He Ab: the mutation stands only in the GpH7-B3-derived H chain; also called He Ab D270E
B3: GpH7-A5/GpH7-B3 variant P271_20W/GpL16-k0 (antibody, human IgG1, kappa)
heavy 1: not shown
heavy 2: not shown
light: B1 light
notes: He Ab: the mutation stands only in the GpH7-B3-derived H chain; also called He Ab P271W
B4: GpH7-A5/GpH7-B3 variant D270_07I/GpL16-k0 (antibody, human IgG1, kappa)
heavy 1: not shown
heavy 2: not shown
light: B1 light
notes: He Ab: the mutation stands only in the GpH7-B3-derived H chain; also called He Ab D270I
B5: GpH7-A5/GpH7-B3 variant D270_15Y/GpL16-k0 (antibody, human IgG1, kappa)
heavy 1: not shown
heavy 2: not shown
light: B1 light
notes: He Ab: the mutation stands only in the GpH7-B3-derived H chain; also called He Ab D270Y
B6: GpH7-A5/GpH7-B3 variant D270_11K/GpL16-k0 (antibody, human IgG1, kappa)
heavy 1: not shown
heavy 2: not shown
light: B1 light
notes: He Ab: the mutation stands only in the GpH7-B3-derived H chain; also called He Ab D270K
B7: GpH7-A5/GpH7-B3 variant D270_03V/GpL16-k0 (antibody, human IgG1, kappa)
heavy 1: not shown
heavy 2: not shown
light: B1 light
notes: He Ab: the mutation stands only in the GpH7-B3-derived H chain; also called He Ab D270V
B8: GpH7-A5/GpH7-B3 variant D270_13S/GpL16-k0 (antibody, human IgG1, kappa)
heavy 1: not shown
heavy 2: not shown
light: B1 light
notes: He Ab: the mutation stands only in the GpH7-B3-derived H chain; also called He Ab D270S
B9: GpH7-A5/GpH7-B3 variant D270_12R/GpL16-k0 (antibody, human IgG1, kappa)
heavy 1: not shown
heavy 2: not shown
light: B1 light
notes: He Ab: the mutation stands only in the GpH7-B3-derived H chain; also called He Ab D270R
B10: GpH7-A5/GpH7-B3 variant D270_08L/GpL16-k0 (antibody, human IgG1, kappa)
heavy 1: not shown
heavy 2: not shown
light: B1 light
notes: He Ab: the mutation stands only in the GpH7-B3-derived H chain; also called He Ab D270L
B11: GpH7-A5/GpH7-B3 variant Q295_01G/GpL16-k0 (antibody, human IgG1, kappa)
heavy 1: not shown
heavy 2: not shown
light: B1 light
notes: He Ab: the mutation stands only in the GpH7-B3-derived H chain; also called He Ab Q295G
B12: GpH7-A5/GpH7-B3 variant H268_04F/GpL16-k0 (antibody, human IgG1, kappa)
heavy 1: not shown
heavy 2: not shown
light: B1 light
notes: Heterodimerized anti-glypican-3 IgG1; substitution in only one H chain (the GpH7-B3 chain); also called He Ab
B13: GpH7-A5/GpH7-B3 variant H268_06M/GpL16-k0 (antibody, human IgG1, kappa)
heavy 1: not shown
heavy 2: not shown
light: B1 light
notes: as for B12
B14: GpH7-A5/GpH7-B3 variant V266_05P/GpL16-k0 (antibody, human IgG1, kappa)
heavy 1: not shown
heavy 2: not shown
light: B1 light
notes: as for B12
B15: GpH7-A5/GpH7-B3 variant H268_08L/GpL16-k0 (antibody, human IgG1, kappa)
heavy 1: not shown
heavy 2: not shown
light: B1 light
notes: as for B12

biological target: T1, FcγRIIb extracellular domain with …; assay: SPR (Biacore), antibody captured via antigen peptide, FcγR as analyte; binding relative to GpH7-A5/GpH7-B3/GpL16-k0 = 100

Row | He/Con_2b | Binder
1 | 60.8 relative (control = 100) | B1
2 | 76.5 relative (control = 100) | B2
3 | 58.1 relative (control = 100) | B3
4 | 41.5 relative (control = 100) | B4
5 | 44.9 relative (control = 100) | B5
6 | 20.3 relative (control = 100) | B6
7 | 39.5 relative (control = 100) | B7
8 | 44.2 relative (control = 100) | B8
9 | 18.3 relative (control = 100) | B9
10 | 53.6 relative (control = 100) | B10
11 | 46 relative (control = 100) | B11

biological target: T4, FcγRIIIa extracellular domain with C-terminal His tag (human, UniProt P08637 17-208); assay: as above
T4 construct: extracellular domain; also called FcgRIIIa; 3a; not shown: His tag at the C terminus
T4 sequence (P08637 17-208): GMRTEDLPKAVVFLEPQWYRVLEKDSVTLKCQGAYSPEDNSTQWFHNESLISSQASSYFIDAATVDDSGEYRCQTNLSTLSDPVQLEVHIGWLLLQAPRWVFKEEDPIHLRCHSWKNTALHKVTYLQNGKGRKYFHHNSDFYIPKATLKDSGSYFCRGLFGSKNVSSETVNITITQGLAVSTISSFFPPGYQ

Row | He/Con_3a | Binder
12 | 81.5 relative (control = 100) | B1
13 | 123 relative (control = 100) | B2
14 | 74.1 relative (control = 100) | B3
15 | 69.6 relative (control = 100) | B4
16 | 54.5 relative (control = 100) | B5
17 | 41 relative (control = 100) | B6
18 | 60.3 relative (control = 100) | B7
19 | 56.7 relative (control = 100) | B8
20 | 28.8 relative (control = 100) | B9
21 | 71.8 relative (control = 100) | B10
22 | 73 relative (control = 100) | B11

biological target: T4, FcγRIIIa extracellular domain with …; assay: ratio of He/Con_3a to He/Con_2b (FcγRIIIa over FcγRIIb), SPR relative binding
Method: The heterodimerized antibodies He Abs in which one of the H chains was introduced with an alteration were assayed for their binding activities to each activating FcγR and inhibitory FcγR according to the method described in Example 4. […] The activating FcγRs in FIGS. 26, 27, 28, and 29 are FcγRIa, FcγRIIa (R), FcγRIIa (H), and FcγRIIIa, respectively.
Analysis of interaction between objective antibody and the FcγR was carried out using Biacore T100 (GE Healthcare). HBS-EP+ (GE Healthcare) was used as the running buffer, and the measurement temperature was set to 25° C. Chips produced by immobilizing the antigen peptide by the amine coupling method to a Series S Sencor Chip CM5 (GE Healthcare), or alternatively, chips produced by allowing preliminarily biotinylated antigen peptides to interact with and immobilize onto a Series S Sensor Chip SA (certified) (GE Healthcare) were used. Antibodies of interest were captured onto an antigen peptide-immobilized chip, and allowed to interact to each FcγR diluted with running buffer. To regenerate and repeatedly use the chip, the antibodies captured on the chip were washed off by reacting 10 mM glycine-HCl, pH 1.5.

Row | IIIa/IIb (He_3a/2b) | Binder
23 | 1.34 | B1
24 | 1.61 | B2
25 | 1.28 | B3
26 | 1.68 | B4
27 | 1.22 | B5
28 | 2.02 | B6
29 | 1.52 | B7
30 | 1.28 | B8
31 | 1.58 | B9
32 | 1.34 | B10
33 | 1.59 | B11

biological target: T2, FcγRIIa H; assay: ratio of He/Con_2aH to He/Con_2b (relative SPR binding to FcγRIIa H over that of the same antibody to FcγRIIb)

Row | He_2aH/2b (IIaH/IIb) | Binder
34 | 1.24 | B12
35 | 1.29 | B13
36 | 1.91 | B14
37 | 1.25 | B15

biological target: T2, FcγRIIa H; assay: SPR (Biacore), antibody captured on antigen-peptide chip, FcγR as analyte; binding relative to GpH7-A5/GpH7-B3/GpL16-k0 = 100

Row | He/Con_2aH | Binder
38 | 111 % of HeCon Ab | B12
39 | 84.8 % of HeCon Ab | B13
40 | 0.7 % of HeCon Ab | B14
41 | 85 % of HeCon Ab | B15

biological target: T3, FcγRIIb; assay: as above

Row | He/Con_2b | Binder
42 | 89.6 % of HeCon Ab | B12
43 | 65.7 % of HeCon Ab | B13
44 | 0.4 % of HeCon Ab | B14
45 | 67.8 % of HeCon Ab | B15
